Measured values: patent publication US6958223 (UNITED STATES SURGICAL, dated 2005)

Biological target: the molecule itself
Test: circular dichroism of purified D4 in 0.1M sodium phosphate pH 7.0 after two days at 4° C.; self-association into homotrimeric helices
Protocol: The solution was incubated at 4° C. for two days to allow triple helices to form prior to analysis. Spectra were obtained on an Aviv model 62DS spectropolarimeter (Yale University, Molecular Biophysics and Biochemistry Department). A 1 mm path length quartz suprasil fluorimeter cell was used. Following a 10 min. incubation period at 4° C., standard wavelength spectra were recorded from 260 to 190 nm using 10 sec acquisition times and 0.5 nm scan steps. This spectrum is characterized by a negative ellipticity at 198 nm and a positive ellipticity at 221 nm. The magnitudes of both of these absorbances was greater in neutral pH buffer compared to acidic conditions. […] See, e.g., Venugopal et al., Biochemistry, 33, 7948 (1994). Heating at 85° C. for five minutes prior to obtaining the CD spectrum decreased the magnitude of the absorbance at 198 nm and abolished the absorbance at 221 nm (FIG. 33). This behavior is also typical of the triple helical structure of collagen. See, R. S. Bhatnagar et al., Circular Dichroism and the Conformational Analysis of Biomolecules G. D. Fasman, Ed., supra. A thermal melt profile of D4 conducted as above in phosphate buffer gave a melting temperature of about 29° C. […] (See, A. Rossi, et al., Biochemistry 35, 6048 (1996)).

B1: D4, 219 amino acid C-terminal fragment of human collagen Type I (α1), hydroxyproline-containing (other)
chain: MGPPGLAGPPGESGREGAPGAEGSPGRDGSPGAKGDRGETGPAGPPGAPGAPGAPGPVGPAGKSGDRGETGPAGPAGPVGPAGARGPAGPQGPRGDKGETGEQGDRGIKGHRGFSGLQGPPGPPGSPGEQGPSGASGPAGPRGPPGSAGAPGKDGLNGLPGPIGPPGPRGRTGDAGPVGPPGPPGPPGPPGPPSAGFDFSFLPQPPQEKAHDGGRYYRA
modifications: trans-4-hydroxyproline in place of proline at all proline positions (100% substitution by mass spectrometry and amino acid analysis)
notes: also called D4-α1; protein D4
B1: binds.
